Numbered stars: 1 amine (or outer) side, 2 acyl side, 3 side chain; on linkers, the order of the positions; unused ones are H or OH. Bridge positions count the residues as written; N and C are the ends. Square brackets hold non-standard residues; d marks the D form. Ends that are not written are not given here. * marks the point of attachment. mXylyl = xylyl linker from dibromoxylene joining the two cysteines; Phe(3-CH2NH2) = O=C([C@H](Cc1cccc(CN[*:3])c1)N[*:1])[*:2]; Ala(1H-tetrazol-5-yl) = N[C@@H](Cc1nnn[nH]1)C(=O)O; des‑NH2 = missing amino-terminal amine group; Phe(4-CH2NH2) = NCc1ccc(C[C@H](N)C(=O)O)cc1; hexyltetrazolyl‑mXylyl = not defined here; η‑ω‑MeR = eta-omega methylated arginine; pXylylene = c1cc(C[*:2])ccc1C[*:1]; NMeE = CN[C@@H](CCC(=O)O)C(=O)O; Gly(cPr) = N[C@H](C(=O)O)C1CC1; dPhg = N[C@@H](C(=O)O)c1ccccc1; Chg = N[C@H](C(=O)O)C1CCCCC1; Pen = CC(C)(S)[C@H](N)C(=O)O; Phg = N[C@H](C(=O)O)c1ccccc1; Tle = CC(C)(C)[C@H](N)C(=O)O; hLys = NCCCCC[C@H](N)C(=O)O; oXylyl = ortho-xylyl linker; mLutidine = meta-lutidine; Heptanoyl = CCCCCCC(=O)*; Nle = CCCC[C@H](N)C(=O)O; Nva = CCC[C@H](N)C(=O)O; Mpa = O=C(O)CCS; Sar = CNCC(=O)O
Target: Activated human plasma kallikrein (Enzyme Research Laboratories, HPKa 1303) (human, UniProt P03952 20-638)
Test: cell-based or functional assay

Chain of Activated human plasma kallikrein (Enzyme Research Laboratories, HPKa 1303) (P03952 20-638 limits assumed): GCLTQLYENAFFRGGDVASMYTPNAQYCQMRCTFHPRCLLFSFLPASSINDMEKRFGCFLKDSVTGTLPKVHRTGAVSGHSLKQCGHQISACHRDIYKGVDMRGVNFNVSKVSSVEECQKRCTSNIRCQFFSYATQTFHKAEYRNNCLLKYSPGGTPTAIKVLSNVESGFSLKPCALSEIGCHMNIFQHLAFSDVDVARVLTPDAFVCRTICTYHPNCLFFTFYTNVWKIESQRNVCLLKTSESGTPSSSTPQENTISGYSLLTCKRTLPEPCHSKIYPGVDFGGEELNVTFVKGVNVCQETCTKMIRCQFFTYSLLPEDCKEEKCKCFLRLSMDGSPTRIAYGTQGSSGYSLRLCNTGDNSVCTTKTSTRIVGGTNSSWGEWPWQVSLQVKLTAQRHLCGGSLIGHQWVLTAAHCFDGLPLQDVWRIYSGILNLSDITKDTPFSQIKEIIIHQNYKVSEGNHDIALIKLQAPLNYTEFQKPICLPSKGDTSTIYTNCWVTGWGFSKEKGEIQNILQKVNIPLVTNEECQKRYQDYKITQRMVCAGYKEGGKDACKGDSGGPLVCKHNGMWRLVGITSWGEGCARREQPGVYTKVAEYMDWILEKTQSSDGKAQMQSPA

MCESICRV-NH2 (linker 2-6 via trans‑butenyl) [R2011]
Avg. IC50: 12800 nM

MCESICRV-NH2 (linker 2-6 via 3‑methoxy‑mXylyl) [R2102]
Avg. IC50: 39.7 nM

[Nva]CES[Phg]CR[Tle]-NH2 (linker 2-6 via mXylyl) [R2013]
Avg. IC50: 6.8 nM

MCESICRVN-NH2 (linker 2-6 via mXylyl) [R2014]
Avg. IC50: 37.5 nM

MCESICR-NH2 (linker 2-6 via mXylyl) [R2015]
Avg. IC50: 16500 nM

MCESICRA-NH2 (linker 2-6 via mXylyl) [R2016]
Avg. IC50: 3900 nM

MCESACRV-NH2 (linker 2-6 via mXylyl) [R2017]
Avg. IC50: 2140 nM

MCEAICRV-NH2 (linker 2-6 via mXylyl) [R2018]
Avg. IC50: 37.3 nM

MC[Ala(1H-tetrazol-5-yl)]SICRV-NH2 (linker 2-6 via mXylyl) [R2020]
Avg. IC50: 13 nM

[Nva]CESIC[Phe(4-CH2NH2)]V-NH2 (linker 2-6 via mXylyl) [R2021]
Avg. IC50: 2000 nM

[Nva]CESIC[Phe(3-CH2NH2)]V-NH2 (linker 2-6 via mXylyl) [R2022]
Avg. IC50: 21000 nM

MCASICRV-NH2 (linker 2-6 via mXylyl) [R2024]
Avg. IC50: 41.9 nM

ACESICRV-NH2 (linker 2-6 via mXylyl) [R2025]
Avg. IC50: 9.5 nM

B1: R2027 (peptide)
peptide: MC[NMeE]ESICRV-NH2
modifications: linker 2-7 via mXylyl; not fully specified; printed as [mXylyl(2,6)]MC-nMeE-ESICRV-NH2
Avg. IC50: 990 nM

B2: R2028 (peptide)
peptide: MCESICRV-NH2
modifications: linker 2-6 via hexyltetrazolyl‑mXylyl; reading uncertain; also: printed as [hexyltetrazolyl-mXylyl(2,6)]MCESICRV-NH2
Avg. IC50: 714 nM

[Nva]CESIC[hLys]V-NH2 (linker 2-6 via mXylyl) [R2029]
Avg. IC50: 8840 nM

[Nva][Pen]ESICRV-NH2 (linker 2-6 via mXylyl) [R2031]
Avg. IC50: 1460 nM

[Nva]CESI[Pen]RV-NH2 (linker 2-6 via mXylyl) [R2032]
Avg. IC50: 1030 nM

Ac-[Nva]CESIC[hLys]V-NH2 (linker 2-6 via mXylyl) [R2033]
Avg. IC50: 8650 nM

[Nva][Pen]ESI[Pen]RV-NH2 (linker 2-6 via mXylyl) [R2034]
Avg. IC50: > 100000 nM

[Nva]CESICRF-NH2 (linker 2-6 via mXylyl) [R2035]
Avg. IC50: 7200 nM

Ac-CSICRV-NH2 (linker 1-4 via mXylyl) [R2037]
Avg. IC50: 410 nM

Ac-CESICRVLK-NH2 (linker 1-5 via mXylyl) [R2038]
Avg. IC50: 299 nM

CAS[Phg]CR[Tle]-NH2 (linker 1-5 via mXylyl) [R2039]
Avg. IC50: 11.9 nM

MCESICKV-NH2 (linker 2-6 via mXylyl) [R2040]
Avg. IC50: 733 nM

MCETICRVLKYSD-NH2 (linker 2-6 via mXylyl) [R2005]
Avg. IC50: 1.8 nM

MCESICRV-NH2 (linker 2-6 via oXylyl) [R2042]
Avg. IC50: 3190 nM

MCESICRV-NH2 (linker 2-6 via pXylylene) [R2043]
Avg. IC50: 617 nM

MCESICRV-NH2 (linker 2-6 via mLutidine) [R2044]
Avg. IC50: 645 nM

Ac-CESICRVL-NH2 (linker 1-5 via mXylyl) [R2045]
Avg. IC50: 187 nM

Ac-CESICRVLR-NH2 (linker 1-5 via mXylyl) [R2046]
Avg. IC50: 59.3 nM

Ac-CAS[Tle]CR[Tle]-NH2 (linker 1-5 via mXylyl) [R2048]
Avg. IC50: 1400 nM

B3: R2049 (peptide)
peptide: {des‑NH2}-CICRV-NH2
modifications: linker 1-3 via mXylyl; not fully specified (residue 1); printed as [mXylyl(1,3)](des-NH2)C-ICRV-NH2
Avg. IC50: 16300 nM

Ac-MCES[Chg]CRV-NH2 (linker 2-6 via mXylyl) [R2050]
Avg. IC50: 11 nM

Ac-CA[Sar][Phg]CR[Tle]-NH2 (linker 1-5 via mXylyl) [R2052]
Avg. IC50: 74.2 nM

Ac-CAS[Phg]C[Phe(4-CH2NH2)][Tle]-NH2 (linker 1-5 via mXylyl) [R2053]
Avg. IC50: 5340 nM

Ac-[Nva]CESIC[η‑ω‑MeR]V-NH2 (linker 2-6 via mXylyl) [R2054]
Avg. IC50: 5000 nM

Ac-CESICRVLRY-NH2 (linker 1-5 via mXylyl) [R2055]
Avg. IC50: 2.2 nM

Ac-CESICRVLRYS-NH2 (linker 1-5 via mXylyl) [R2056]
Avg. IC50: 1.9 nM

Ac-CESICRVLRYSE-NH2 (linker 1-5 via mXylyl) [R2057]
Avg. IC50: 0.943 nM

Ac-CAP[Phg]CR[Tle]-NH2 (linker 1-5 via mXylyl) [R2058]
Avg. IC50: 29.5 nM

Ac-CASFCR[Tle]-NH2 (linker 1-5 via mXylyl) [R2059]
Avg. IC50: 425 nM

Ac-C[dA]S[dPhg]CR[Tle]-NH2 (linker 1-5 via mXylyl) [R2060]
Avg. IC50: 959 nM

B4: R2061 (peptide)
peptide: Ac-CAS[Phg]CR[Tle]-NH2
modifications: linker 1-5 via mXylyl; not fully specified (residue 2); printed as [mXylyl(1,5)]Ac-C-a-S-Phg-CR-Tbg-NH2
Avg. IC50: 12.7 nM

MCESICRV-NH2 (cysteine pairing not given here) [R2007]
Avg. IC50: 2000 nM

B5: R2062 (peptide)
peptide: Ac-CAS[Gly(cPr)]CRV-NH2
modifications: linker 1-5 via mXylyl; not fully specified (residue 2); printed as [mXylyl(1,5)]Ac-C-a-S-Cppg-CRV-NH2
Avg. IC50: 2470 nM

B6: R2063 (peptide)
peptide: Ac-CASVCRV-NH2
modifications: linker 1-5 via mXylyl; not fully specified (residue 2); printed as [mXylyl(1,5)]Ac-C-a-SVCRV-NH2
Avg. IC50: 151 nM

[Mpa][code a]S[Phg]CR[Tle]-NH2 (linker 1-5 via mXylyl) [R2064]
Avg. IC50: 14.9 nM

Ac-C[Nle]S[Phg]CR[Tle]-NH2 (linker 1-5 via mXylyl) [R2065]
Avg. IC50: 6.1 nM

B7: R2066 (peptide)
peptide: Heptanoyl-CAS[dPhg]CR[Tle]-NH2
modifications: linker 1-5 via mXylyl; not fully specified (residue 2); printed as [mXylyl(1,5)]Heptanoyl-C-a-S-(D)Phg-C-R-Tbg-NH2
Avg. IC50: 4370 nM

B8: R2067 (peptide)
peptide: Heptanoyl-CAS[Phg]CR[Tle]-NH2
modifications: linker 1-5 via mXylyl; not fully specified (residue 2); printed as [mXylyl(1,5)]Heptanoyl-C-a-S-Phg-C-R-Tbg-NH2
Avg. IC50: 19.1 nM
